Where no end group is shown, it is not given here.
How the values were obtained:
[1] = test system: FGF-induced angiogenesis in the mouse cornea; test: Corneal pocket implant angiogenesis assay; assay type: in vivo
Description: FIG. 13—Inhibition of corneal angiogenesis by SSTN. PolyHEMA pellets (0.25 μL) containing 67 ng FGF-2 and sucralfate were implanted into the avascular mouse cornea. Alzet pumps containing PBS, 2500 μM mS1ED or a range of SSTN concentrations (0-100 μM) were implanted subcutaneously on the back of the animals and angiogenesis for 7 days. Fluorescent dextran was injected suborbitally for 2 min prior to sacrifice for observation of the vascular system in dissected cornea (picture insets). Total angiogenesis is quantified as total length of vessels growing from the limbic vessels at the margin of the cornea.
A polyhydroxyethylmethacrylate (PolyHEMA) pellet 1 μl in volume containing 100 ng FGF was implanted into pockets surgically prepared in the center of the avascular corneas of 6 wk-old Balb/c mice. Three mice were used as controls and three mice received a 0.2 ml Alzet osmotic pump implanted subcutaneously on the back of the mice. The pump was loaded with 100 μM synstatin82-130 in sterile saline and delivers 1 μl into the mouse per hr. The mice were allowed to recover and were maintained for seven days. The extent of angiogenesis was recorded by digital camera images of the living mouse. Fluorescent dextran was then injected into the vascular via retro-orbital injection 1-2 minutes prior to sacrifice. Corneas were surgically removed, mounted on slides and the extent of vascularization observed via fluorescence microscopy.
To test the efficacy of synstatin82-130 in vivo, the inventors have used the mouse corneal pocket implant angiogenesis assay. Here, angiogenesis is induced in the avascular mouse cornea by implantation of a polyHEMA pellet containing fibroblast growth factor (FGF), which is a potent angiogenic agent. The FGF will induce angiogenic outgrowth of new vessels from the limbic vessels at the margin of the cornea into the avascular region at the center of the cornea where the pellet is implanted. The inventors have tested recombinant S1ED by supplying it along with the FGF in the pellet implanted into the cornea, and have also introduced it into the systemic circulation of the mouse through the use of an osmotic pump placed subcutaneously on the back of the animal. The latter protocol more closely mimics the manner in which such an inhibitor might be delivered as a drug in patients. […] The concentration necessary for the block in vivo has not yet been measured. […] However, this is likely to be a high estimate, as clearance and degradation are likely to occur, and the protein is likely to be present in the greater volume of the mouse than just the vascular system.
Lastly, SSTN was tested in the in vivo corneal angiogenesis assay. Polyhydroxyethylmethylacrylate pellets (0.25 μL) containing 67 ng FGF-2 and sucralfate as a slow release agent were implanted into the avascular mouse cornea. After seven days, fluorescent dextran was injected suborbitally to highlight the vascular system and the mice were sacrificed. […] To supply the inhibitor in a more quantifiable and physiological manner, recombinant mS1ED or SSTN were delivered systemically via Alzet osmotic pumps implanted subcutaneously on the backs of the animals. […] To correlate this with the active concentration in the plasma, the inventors took advantage of rabbit polyclonal antibodies generated against mS1ED, which detect active SSTN on dot blots. […] Using this method to detect active SSTN in the blood collected from animals after 1 week of SSTN treatment, SSTN is shown to be in the blood at 125-150 nM when present at 10 μM in the osmotic pump.

[2] = test system: MDA-MB-231 human mammary carcinoma cells; assay type: cell-based
Description: FIGS. 5A-5F—Inhibition of MDA-MB-231 human mammary carcinoma cell attachment and spreading on VN by synstatin82-130. MDA-MB-231 human mammary carcinoma cells, which rely on the αvβ3 integrin for attachment and spreading on VN, were plated on 10 μg/ml VN for 2 hr in the absence of peptide (FIG. 5A) or in the presence of 0.1 (FIG. 5B), 0.3 (FIG. 5C) or 1 μM (FIG. 5D) synstatin82-130. The cells were fixed and stained as in FIG. 2.
FIG. 17—Human SSTN peptides inhibit αvβ3-mediated cell attachment and spreading on vitronectin. MDA-MB-231 human mammary carcinoma cells were allowed to attach and spread on either vitronectin (VN) or fibronectin (FN) during a 2 hr assay in the presence of 0, 0.1, 0.3, 0.5, 1.0 or 30 μM SSTN peptide. […] The two peptides tested are derived either from amino acids 88-121 (hSSTN 88-121) or 89-120 (hSSTN 89-120) of the human Sdc1 sequence. Adhesion to VN, but not FN, is mediated by the αvβ3 integrin on these cells and is disrupted by the human SSTN peptides.
Cell adhesion and spreading assays were performed with modification to the previous procedures (Lebakken and Rapraeger, 1996. Briefly, human plasma vitronectin or fibronectin at 10-30 μg/ml were applied to nitrocellulose-coated ten well slides (Erie Scientific) and incubated for 1-2 h at 37° C. Slides were blocked with 1.0% heat-denatured bovine serum albumin for a minimum of 30 min at 37° C. Cells were detached from the substratum using 5 mM EDTA in Tris-buffered saline and resuspended in HEPES-buffered culture medium containing 0.1% heat-denatured BSA. Cells were plated at a density of 15,000 cells per well and allowed to attach and spread for 2 h prior to fixation in 4% paraformaldehyde in CMF-PBS. For fluorescence microscopy, fixed cells were permeabilized in 0.2% Triton X-100, labeled with rhodamine-conjugated phalloidin and analyzed using fluorescence microscopy. For testing inhibition by recombinant mScd-1ED and synstatin82-130, cells were pre-incubated 10 min before plating in the presence of the inhibitor. […] LM609 was used as a specific block to αvβ3 and P1F6 was used as a specific blocker of αvβ5.
The inventors have tested the adhesion and spreading of MDA-MB-231 mammary carcinoma cells on VN in the presence or absence of synstatin82-130. These cells rely specifically on the active αvβ3 integrin for this adhesion (Beauvais et al., 2004). Recombinant Sdc1 ectodomain (SLED) has been shown by the inventors previously to block spreading of these cells with an IC50 of about 3-10 μM (Beauvais et al., 2004). […] Thus, synstatin82-130 is a specific and effective inhibitor of αvβ3 integrin activation.

SNTETAFTSVLPAGEKPEEGEPVLHVEAEPGFTARDKEKEVTTRPRETV [synstatin82-130]
ill effects after one week of treatment ([1]; 100 μM in osmotic pump, activity, eating, weight, behavior): no ill effects | estimated systemic concentration after 24 hr ([1]; 100 μM in pump, same assumptions): ≤ 1.2 µM | IC50 ([2]; 2 h): ~100 nM

B1: S1ED: recombinant mouse Sdc1 ectodomain (amino acids 18-251), expressed in bacteria as GST fusion or 6×His-tagged protein (protein)
chain: QPALPQIVAVNVPPEDQDGSGDDSDNFSGSGTGALPDTLSRQTPSTWKDVWLLTATPTAPEPTSSNTETAFTSVLPAGEKPEEGEPVLHVEAEPGFTARDKEKEVTTRPRETVQLPITQRASTVRVTTAQAAVTSHPHGGMQPGLHETSAPTAPGQPDHQPPRVEGGGTSVIKEVVEDGTANQLPAGEGSGEQDFTFETSGENTAVAAVEPGLRNQPPVDEGATGASQSLLDRK
modifications: left off: a dimerising Fc or GST
notes: recombinant mouse Sdc1 ectodomain (amino acids 18-251), expressed in bacteria as GST fusion or 6×His-tagged protein
estimated systemic concentration after 24 hr ([1]; 2.4 mM in pump, 1 μl per hour, assuming 2 ml blood volume, no degradation or clearance): approximately 29 μM | corneal angiogenesis ([1]; 2500 μM in Alzet pump, 67 ng FGF-2 pellet, 7 days): nearly total block of angiogenesis | FGF-induced corneal angiogenesis ([1]; in the pellet with FGF or systemic via osmotic pump, 2.4 mM, 1 μl per hour): blocks the FGF-induced angiogenesis | corneal angiogenesis ([1]; incorporated into the pellet): reduced the angiogenesis | complete block of cell attachment on VN ([2]; highest concentration tested, 50 μM): not seen

Reference: patent US10864251B2, “Peptides of syndecan-1 for inhibiting angiogenesis” (Wisconsin Alumni Research Foundation, priority 2006, dated 2020)
